Laboratory results from patent US20230212543A1 (GENOVIS, published 2023).
Where no end group is shown, it is not given here.

Legend:
[1] = target: T1, TNFαR (the TNFα binding part of etanercept) (human, UniProt P20333 23-257, O-glycosylated; pretreated with sialidase mixture in the binding assay); test: protein mix on immobilised LSH205A/E206A resin, SDS-PAGE (FIG. 11B)
T1 construct: also called TNFaR2; TNFaR
T1 sequence (looked up): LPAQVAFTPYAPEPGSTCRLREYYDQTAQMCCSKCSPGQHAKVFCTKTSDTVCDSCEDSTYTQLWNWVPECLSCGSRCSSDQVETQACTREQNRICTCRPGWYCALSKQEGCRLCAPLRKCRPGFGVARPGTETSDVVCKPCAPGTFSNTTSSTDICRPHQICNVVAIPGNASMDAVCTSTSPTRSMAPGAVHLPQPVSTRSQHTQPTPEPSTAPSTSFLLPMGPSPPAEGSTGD

[2] = target: T2, BSA (bovine serum albumin) (bovine, UniProt P02769 25-607); test: as above
T2 construct: Non-glycosylated control protein

[3] = target: T3, glycodrosocin (GD) (not fully specified (residue 11)); test: peptide mix on immobilised double-mutant resin, LC/MS of load, flow through and eluate (FIG. 19A)
T3 construct: also called glycodrosocin peptide
T3 peptide: GKPRPYSPRPTSHPRPIRV

[4] = target: T4, H4062; test: as above
T4 construct: Non-glycosylated peptide
T4 peptide: KKLVFFA

[5] = target: T5, H8390; test: as above
T5 construct: Non-glycosylated peptide
T5 peptide: FLPLILGKLVKGLL

[6] = target: T6, H2686; test: as above
T6 construct: Non-glycosylated peptide
T6 peptide: YIYGSFK

T2 sequence (P02769 25-607 limits assumed): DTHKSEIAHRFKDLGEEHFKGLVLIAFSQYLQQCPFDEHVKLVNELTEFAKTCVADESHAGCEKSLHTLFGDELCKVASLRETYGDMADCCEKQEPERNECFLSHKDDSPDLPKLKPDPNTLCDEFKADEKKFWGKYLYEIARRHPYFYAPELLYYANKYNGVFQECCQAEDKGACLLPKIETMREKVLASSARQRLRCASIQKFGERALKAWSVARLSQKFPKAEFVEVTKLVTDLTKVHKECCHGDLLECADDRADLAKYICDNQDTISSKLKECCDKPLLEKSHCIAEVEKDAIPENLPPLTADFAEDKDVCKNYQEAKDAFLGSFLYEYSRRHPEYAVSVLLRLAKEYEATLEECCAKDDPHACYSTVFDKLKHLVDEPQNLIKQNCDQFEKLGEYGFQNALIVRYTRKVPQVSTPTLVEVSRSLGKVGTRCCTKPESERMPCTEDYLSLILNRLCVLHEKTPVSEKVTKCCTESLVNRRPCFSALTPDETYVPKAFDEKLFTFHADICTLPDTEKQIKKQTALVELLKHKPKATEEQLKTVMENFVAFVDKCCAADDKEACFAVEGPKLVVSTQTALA

B1: LSH205A/E206A (designed binder)
chain: MEVTVPDALKDRIALKKTARQLNIVYFLGSDTEPVPDYERRLSELLLYLQQFYGKEMQRHGYGARSFGLDIKSPGRVNIIEYKAKNPAAHYPYENGGGWKAAQELDEFFKAHPDRKKSQHTLIIMPTWNDEKNGPDNPGGVPFYGMGRNCFALDYPAFDIKHLGQKTREGRLLTKWYGGMAAALGHGLNLPHNHQTASDGKKYGTALMGSGNYTFGTSPTFLTPASCALLDACEVFSVTPSQQFYEGKPEVEVGDVAISFKGDQILVSGNYKSPQTVKALNVYIQDPPYAVNQDYDAVSFSRRLGKKSGKFSMKIDKKELEGLNNNEFRISLMFILANGLHMQKHFTFHWDALQDYRDGSKSGSGHHHHHH
notes: also called LSHE206AA; Amuc1119H205A/E206A
B1: binds [1]; no binding [2]; binds [3]. B1: no binding [4]; no binding [5]; no binding [6].
